3 molecules from patent publication US20250355001A1, “METHOD FOR DETECTING A TAU PROTEIN FRAGMENT IN A SAMPLE” (GTINVENT LIMITED, priority 2022, published 2025) can be followed below.

Series [1] concerns hT40, dGA, dGAE and truncated tau fragments. The series is described as follows: Binding ELISA / epitope mapping of anti-tau scAbs with truncated tau proteins and 13mer peptides. Set-up: species or system human. As to conditions: for Tau proteins/fragments with positive scAb reactivity: binding ELISA; for binding region on hT40: amino acid residues of hT40; for Binding region hT40: second Table 26, own antibodies. In outline:
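Serially double-diluted scAbs were applied to 2% MPBS-blocked wells carrying either 1 μg/ml full-length or truncated tau, or biotinylated 13mer peptides (1 μg/ml) captured on 5 μg/ml streptavidin. Absorbance after HRP anti-human C kappa secondary gave the binding signal.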
For orientation: An ELISA detects its analyte on a solid surface through an enzyme-linked reagent.

Series [2] has as its target aggregated dGAE (Homo sapiens, UniProt P10636). The series can be described thus: Capture ELISA ranking mAbs for capture of dGAE aggregates. Format: binding. The settings on record: capture mAb 1 μg/ml; 800 nM aggregated dGAE. The method, then: The aggregation cascade of natively unfolded tau into insoluble filaments is a defining pathological feature of AD. Therefore, it is logical to target aggregated tau filaments for both therapeutic and diagnostic purposes. The following experiment was performed to assess the ability of our dGA mAb panel to bind aggregated dGAE using a capture ELISA method. Aggregates were prepared by incubating 100 μM dGAE and 10 mM dTT for 24 h at 37° C. with shaking at 700 RPM. The following day, dGAE aggregates were centrifuged at 17,000×g for 20 min and the supernatant was removed. The remaining pellet was washed with 10 mM phosphate buffer and centrifuged as above. Washing was repeated a further two times to remove any remaining dGAE monomer. The dGAE pellet was resuspended in 100 μl of 10 mM phosphate buffer. (Using a separate capture ELISA based quantification, we have worked out the efficiency of our dGAE aggregation as 80%)
Following washing, 800 nM aggregated dGAE was added to the designated wells, double diluted across the plate and incubated for 1 h at RT. The plate was washed again and 1 μg/ml S1G2 scAb was added as detection antibody and incubated for 1 h at RT. To the row where S1G2 mAb was used for capture, […] s1D12 scAb was added as […] instead of S1G2. The assay was developed using HRP labelled HuCK as described previously.

Series [3] has as its system 13 aa tau peptides of hT40. The series is described as follows: Alanine scanning mutagenesis (ASM) peptide ELISA. The settings on record: alanine substituted peptides; numbering SEQ ID NO: 1. Format: binding, human. The method, then:
Briefly, 5 μg/ml streptavidin (Thermo Fisher) was adsorbed to Nunc 96-well MaxiSorp plates and following incubation at 37° C. for 1 h, the plates were washed as normal and blocked with 2% MPBS. N-terminally biotinylated peptides (Prolmmune Ltd) were added to the plates and incubated for 1 h at 37° C. Subsequently, test scAbs at starting concentrations of 100-500 nM was added and double diluted across the plate for each peptide and incubated for 1 h at 37° C. Rest of the ELISA was conducted as described above and the plates were read at absorbance 450 nm. Immunoreactivity of the scAb of interest was quantified as the % of scAb was bound for each peptide at a chosen concentration (FIG. 15-20).

In series [4] the target is dGAE aggregates (Homo sapiens, UniProt P10636). The series is described as follows: Epitope occlusion assay: dGAE aggregation with/without LMTM, 423 mAb capture ELISA. It is filed as biochemical. As to conditions: total and supernatant samples; 423 mAb capture. Here is the method: During dGAE aggregation in vitro, scAb binding regions on dGA/dGAE are ‘hidden’ or ‘occluded’ which leads to a loss of immunoreactivity in aggregation samples. Here we have shown the occlusion of binding regions in aggregated dGAE samples and the recovery of immunoreactivity in the presence of LMTM, a tau-aggregation inhibitor. For preparing the aggregates, 10 μl 10 mM DTT was added to 1000 μl 100 μM dGAE and agitated with/without LMTM (1:5 ratio) at 700 rpm for 24 h at 37° C. Following overnight agitation, one third of each sample was kept aside as ‘total’ and the rest was spun down at 16000×g for 30 min and separated into ‘supernatant’ and ‘pellet’. The pellet was then resuspended in half the original volume for further experiments. […] Doubling dilutions of dGAE aggregate ‘total’, ‘supernatant’ and ‘pellet’ samples at 10 μg/ml starting concentration were added to designated wells in doubling dilutions in 1×PBS. dGAE monomer (non-aggregated) was included as assay control. All double dilutions were done in final volumes of 100 μl. This was left to incubate on lab bench for 1 h followed by the addition of test scAbs at 10 μg/ml. Anti-HuCk HRP labelled secondary antibody was added as described previously and ELISA data generated is represented using the graph below.

Where [5] appears, read: Table 16, NS, S and M clones, incl. 13mer peptides.
Where [6] appears, read: Table 26 summary, top scAbs, residues of hT40.
Where [7] appears, read: Table 15, residue numbers of hT40.
Where [8] appears, read: residue numbers of SEQ ID NO: 1 (hT40), CDR Tables 1-11.

Sequence of aggregated dGAE (P10636 614-708): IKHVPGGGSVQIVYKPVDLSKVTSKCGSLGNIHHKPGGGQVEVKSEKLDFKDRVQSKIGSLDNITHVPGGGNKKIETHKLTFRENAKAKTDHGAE
Sequence of dGAE aggregates (P10636 614-708): as above

B1: S1G2: sheep-derived anti-tau core clone; scFv SEQ ID NO: 81, VH 455, VL 456 (protein)
scFv: QVQLQESGPSLVKPSQTLSLTCTVSGFSLTSNSVGWVRQAPGKAPEWVAGIDTDGEEGYNPALNSRLSITRDTSKSQVSLSLSSVTSEDTAVYYCGRSYRADGLAYGYVQAIDYWGPGLLVTVSSEGKSSGASGESKVDDQAVVTQPSSVSGSLGQRVSITCSGSFIGISSVGWFQQLPGSGLRTIIVASDGRPSGVPDRFSMSKSGNTATLTISSLQAEDEADYFCGSSDRTPYTGVFGSGTRLTVLG
modifications: S1G2 amino acid sequence
As for B1, the “Tau proteins/fragments with positive scAb reactivity” value (shortened to “Tau proteins/fragments”) in series [1] (Table 16, NS, S and M clones) is listed as “hT40, 297-390 (dGA), 297-391 (dGAE), 369-390, 369-391”. Also, in series [1] (setting [5]), the “Shortest region bound on hT40” value is 367-379. In addition, the Epitope in series [1] (setting [6]) is listed as 367-379. Further, the “Detection scAb (Epitope)” value in series [1] (Table 28 (LoD table), residues of hT40) is recorded as “S1G2 (367-379)”. In addition, in series [1], the “binding region on hT40” value is 367-379 and the “Binding region hT40” value is reported as “(Binding region hT40 367-379)”. The “ability to capture dGAE aggregates” value in series [2] is “most efficient at capturing aggregated dGAE”.

B2: CE2: anti-tau core clone, Table 10; SEQ ID NO: 366 (protein)
scFv: QVQLQESGPSLVKPSQTLSLTCTVSGFSLTNYPVGWVRQAPGKALEWIGNIENDGSANYASALKSRLSITRDTSKNQVSLSLSSATTEDTAVYYCGREFGGSDGYTYFVDIDYWGPGLLVTVSSEGKSSGASGESKVDDQAVLTQPSSVSKSLGQSVSITCSGSSSNVGYGNYVSWFQQVPGSAPKILIYGATSRASGVPDRFSGSRSGNTATLTITSLQAEDEADYYCASYDGSSSGVFGSGTRLTVLG
modifications: CE2/E1B8 amino acid sequence
Take B2: in series [1] (ELISA, 'E' group scAbs), the “cross-reactivity using hT40, dGA and dGAE antigens” value is “cross-reacts with dGA”. The “Tau proteins/fragments” value is given as 297-390 (dGA), 297-391 (dGAE), 313-336 in series [1] (setting [7]) and “hT40, 266-359 (R1-3)” in series [1] (Table 17, 'C' group scAbs). The “Shortest region bound on hT40” value in series [1] (setting [7]) is 313-336; in series [1] (Table 17, 'C' group scAbs, incl. 13mer peptides), 319-331. The Epitope in series [1] (setting [6]) was 319-331; in series [1] (Table 26 summary, top scAbs, residues of hT40, listed as E1B8), 316-336; in series [1] (setting [8]), 319-331. Also, the “binding region on hT40” value in series [1] (listed as E1B8 scAb) is 313-336. Moreover, in series [1] (second Table 25, mAb format), the hT40 binding region is reported as 319-331. Also, the critical binding residues in series [3] was 323 (G), 324 (S), 325 (L), 326 (G), 327 (N) and/or 328 (I). Further, in series [4], the “immunoreactivity to dGAE aggregation samples prepared in the presence of LMTM” value is “increase in immunoreactivity”.

B3: S1D12: sheep-derived anti-tau core clone; scFv SEQ ID NO: 32, VH 443, VL 444 (protein)
scFv: QVQLQESGPSLVKPSQTLSLTCTVSGFSLNNNAVGWVRQAPGKVPESLVGCSSDGTCYYNSALKSRLDITRDTSKNQISLSLSSVTTDDAAVYYCTRGHYSIYGYDYLGTIDYWGPGLLVTVSSEGKSSGASGESKVDDQAVLTQPSSVSGSLGQRVSITCSGSSSNVGGGNSVGWYQHLPGSGLKTIIYDTNSRPSGVPDRFSGSRSGNTATLTINSLQAEDEGDYYCVTGDSTTHDDLVGSGTRLTVLG
modifications: S1D12 amino acid sequence
Take B3: the “Tau proteins/fragments” value in series [1] (Table 16, NS, S and M clones) is “hT40, 297-390 (dGA), 297-391 (dGAE), 186-350, 266-359, 337-368”. Moreover, in series [1] (setting [5]), the “Shortest region bound on hT40” value is reported as 337-355. Further, in series [1] (setting [6]), the Epitope is 337-349. Besides, in series [1], the “binding region on hT40” value is on record as 337-355 and the “Binding region hT40” value is “(Binding region hT40 337-355)”. For the same molecule, in series [1] (setting [8]), the Epitope is listed as 337-355. In series [3], the critical binding residues is 343 (K), 346 (F) and/or 349 (R). The “immunoreactivity to dGAE aggregation samples prepared in the presence of LMTM” value in series [4] is reported as “increase in immunoreactivity”. Moreover, the “ability to capture dGAE aggregates” value in series [2] is “most efficient at capturing aggregated dGAE”.
